Laboratory results: PMC10269810, “RNA Encapsulation Mode and Evolutionary Insights from the Crystal Structure of Emaravirus Nucleoprotein”
Several values for one entry are separate records, joined by “and”; a condition that tells them apart may be missing. Equal values may be shown once.

Tests used:
[1] = biological target: fig mosaic virus nucleoprotein, full length (N^fl) (fig mosaic virus); assay: SEC-MALS; RNA-free purified N^fl; conditions not given
[2] = biological target: trypsin-treated fig mosaic virus nucleoprotein lacking the first 45 N-terminal residues (N^ΔN45) (fig mosaic virus); assay: crystal structure; RNA-free N^ΔN45, hanging drop at 16°C, sodium formate pH 7.0, space group P2_(1), four molecules in the asymmetric unit
[3] = biological target: trypsin-treated fig mosaic virus nucleoprotein lacking the first 45 N-terminal residues (N^ΔN45) (fig mosaic virus); assay: crystal structure; N^ΔN45 co-crystallized with 42-mer poly(U) ssRNA, 20% PEG 3350, 0.2 M magnesium formate pH 5.9, space group P2_(1)2_(1)2_(1)
[4] = biological target: FMV N full length (Nfl) (Fig mosaic virus (Fimoviridae, …, UniProt I2FFM8 1-315)); assay: fluorescence polarization; RNA 1 uM; ITC: 20 mM Tris pH 7.4, 150 mM NaCl, 5% glycerol, 5 mM beta-ME, 25 C; FP: 1 uM RNA, 37 C 20 min incubation, buffer not stated (protein stock 20 mM Tris pH 7.5); settings: protein: recombinant; tags: N-terminal 6xHis removed by TEV; chain copies: 4; label: 5' 6-carboxyfluorescein (FAM); single strand

How did the stoichiometry N [1] turn out when “fig mosaic virus nucleoprotein, full length (N^fl) (natural protein)” was run?
The stoichiometry N was 4 and 3 and 5.

“trypsin-treated fig mosaic virus nucleoprotein lacking the first 45 N-terminal residues (N^ΔN45) (domain or fragment)” was tested. Which stoichiometry N [2] did it give?
Its stoichiometry N is 4.

What about the stoichiometry N [3] of the same molecule?
Its stoichiometry N is 4.

Which Kd [4] does the source give for UUUUUUUUUUUUUUUUUUUUUUUUUUUUUUUUUUUUUUUUUU (ssRNA) [poly(rU) 42-mer, FAM] here?
The Kd was about 5 µM.
